PMC4918322

Biological target: PLK1 (UniProt P53350)
Test: anti-V5 co-immunoprecipitation, PLK1 blot
Conditions: reference: wild-type RSF1-C1; sites S1375

binding against the reference: lost
Substance: RSF1 C1, 627-1441 (from UniProt Q96T23) S1375A
